This passage reports flow of ^22 Na into cells results from patent US5830703.

Where no end group is shown, it is not given here.

The test has as its target sodium channel.

B1: proadrenomedullin N-terminal 10-20 peptide (proAM-N(10-20)) (peptide)
peptide: RKKWNKWALSR
modifications: ends and bridges not checked
Regarding B1, the flow of ^22 Na into cells was 70%.

B2: proadrenomedullin N-terminal 20 peptide (proAM-N20) (peptide)
peptide: ARLDVASEFRKKWNKWALSR
modifications: ends and bridges not checked
Molecule B2 had a flow of ^22 Na into cells of 30%.
